Numbered stars: 1 amine (or outer) side, 2 acyl side, 3 side chain; on linkers, the order of the positions; unused ones are H or OH. Square brackets hold non-standard residues; d marks the D form. Side chains are listed from the residue outwards. Ends that are not written are not given here. * marks the point of attachment. C20 diacid = O=C(O)CCCCCCCCCCCCCCCCCCC(=O)*; γGlu = O=C(O)[C@H](CCC(=O)[*:2])N[*:1]; AEEA = NCCOCCOCC(=O)O; Aib = CC(C)(N)C(=O)O
Key:
[1] = biological target: human secretin receptor (hSCTR) (human, UniProt P47872 23-440); assay: cell-based or functional assay
[2] = biological target: human GLP-1 receptor (hGLP1R) (human, UniProt P43220 24-463); assay: cell-based or functional assay

human secretin receptor (hSCTR), sequence (P47872 23-440): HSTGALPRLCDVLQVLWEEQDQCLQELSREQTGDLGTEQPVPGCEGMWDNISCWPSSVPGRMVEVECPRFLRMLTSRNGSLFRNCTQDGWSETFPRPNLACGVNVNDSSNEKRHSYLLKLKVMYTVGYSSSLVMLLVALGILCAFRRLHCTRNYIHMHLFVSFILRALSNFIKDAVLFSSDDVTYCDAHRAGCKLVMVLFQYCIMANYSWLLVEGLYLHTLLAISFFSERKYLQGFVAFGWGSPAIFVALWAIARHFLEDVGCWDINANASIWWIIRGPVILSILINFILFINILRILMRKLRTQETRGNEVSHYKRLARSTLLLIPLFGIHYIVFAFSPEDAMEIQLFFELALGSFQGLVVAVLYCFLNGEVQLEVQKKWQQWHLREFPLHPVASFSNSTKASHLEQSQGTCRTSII

Binder	pEC50 hSCTR [1]	pEC50 hGLPR1 [2]
H[Aib]EGTFTSDVSFLK([AEEA-AEEA-γGlu-C20 diacid])EFAASQRFLEHLV-NH2 [SEQ ID NO: 91]	4.5 -log M	9.5 -log M
H[Aib]EGTFTSDVSVLK([AEEA-AEEA-γGlu-C20 diacid])EFAASQRFLEHLV-NH2 [SEQ ID NO: 92]	5.8 -log M	10.1 -log M
H[Aib]EGTFTSDVSTLK([AEEA-AEEA-γGlu-C20 diacid])ETAATQRFLEHLV-NH2 (not fully specified) [SEQ ID NO: 93]	6.5 -log M	11 -log M
H[Aib]EGTFTSDVSYLKE[Aib]AAQQRFLEHLV-NH2 (not fully specified (residue 14)) [SEQ ID NO: 94]	6 -log M	11 -log M
H[Aib]EGTFTSDVSYLKEEAAEQRFLEHLV-NH2 (not fully specified (residue 14)) [SEQ ID NO: 95]	4.8 -log M	10.7 -log M
H[Aib]EGTFTSDVSRLK([AEEA-AEEA-γGlu-C20 diacid])ELAA[Aib]QRFLEHLV-NH2 (also: K14 lipid also given as C18DA[γE][OEG][OEG]-) [SEQ ID NO: 10]	6.3 -log M	9.7 -log M
H[Aib]EGTFTSDVSTLKEEAAAQRFLEHLV-NH2 (not fully specified (residue 14)) [SEQ ID NO: 96]	6.4 -log M	10.9 -log M
H[Aib]EGTFTSDVSELKEEAA[Aib]QRFLEHLV-NH2 (not fully specified (residue 14)) [SEQ ID NO: 97]	5.8 -log M	11 -log M
H[Aib]EGTFTSDVSELKEEAAAQRFLEHLV-NH2 (not fully specified (residue 14)) [SEQ ID NO: 98]	5.9 -log M	10.6 -log M
H[Aib]EGTFTSDVSELKELAAQQRFLEHLV-NH2 (not fully specified (residue 14)) [SEQ ID NO: 99]	6.1 -log M	10.8 -log M
H[Aib]EGTFTSDVSTLK([AEEA-AEEA-γGlu-C20 diacid])EFAAQQRFLEHLV-NH2 (also: K14 lipid also given as C18DA[γE][OEG][OEG]-) [SEQ ID NO: 100]	6.1 -log M	9.9 -log M
H[Aib]EGTFTSDVSVLK([AEEA-AEEA-γGlu-C20 diacid])ETAA[Aib]QRFLEHLV-NH2 (also: K14 lipid also given as C18DA[γE][OEG][OEG]-) [SEQ ID NO: 101]	6 -log M	9.7 -log M
H[Aib]EGTFTSDVSTLK([AEEA-AEEA-γGlu-C20 diacid])EEAATQRFLEHLV-NH2 (also: K14 lipid also given as C18DA[γE][OEG][OEG]-) [SEQ ID NO: 102]	7.1 -log M	11 -log M
H[Aib]EGTFTSD[Aib]SYLK([AEEA-AEEA-γGlu-C20 diacid])EEA[Aib]LQRFLEHLV-NH2 (also: K14 lipid also given as C18DA[γE][OEG][OEG]-) [SEQ ID NO: 103]	5 -log M	11.1 -log M
H[Aib]EGTFTSD[Aib]SRLLEGAALQRFIQWLV-NH2 (N-terminus assumed; SMILES CC[C@H](C)[C@H](NC(=O)[C@H](Cc1ccccc1)NC(=O)[C@H](CCCNC(=N)N)NC(=O)[C@H](CCC(N)=O)NC(=O)[C@H](CC(C)C)NC(=O)[C@H](C)NC(=O)[C@H](C)NC(=O)CNC(=O)[C@H](CCC(=O)O)NC(=O)[C@H](CC(C)C)NC(=O)[C@H](CC(C)C)NC(=O)[C@H](CCCNC(=N)N)NC(=O)[C@H](CO)NC(=O)C(C)(C)NC(=O)[C@H](CC(=O)O)NC(=O)[C@H](CO)NC(=O)[C@@H](NC(=O)[C@H](Cc1ccccc1)NC(=O)[C@@H](NC(=O)CNC(=O)[C@H](CCC(=O)O)NC(=O)C(C)(C)NC(=O)[C@@H](N)Cc1c[nH]cn1)[C@@H](C)O)[C@@H](C)O)C(=O)N[C@@H](CCC(N)=O)C(=O)N[C@@H](Cc1c[nH]c2ccccc12)C(=O)N[C@@H](CC(C)C)C(=O)N[C@H](C(N)=O)C(C)C) [SEQ ID NO: 104]	6.5 -log M	9.9 -log M
H[Aib]EGTFTSD[Aib]SGLLEGAALQRFIQWLV-NH2 (N-terminus assumed; SMILES CC[C@H](C)[C@H](NC(=O)[C@H](Cc1ccccc1)NC(=O)[C@H](CCCNC(=N)N)NC(=O)[C@H](CCC(N)=O)NC(=O)[C@H](CC(C)C)NC(=O)[C@H](C)NC(=O)[C@H](C)NC(=O)CNC(=O)[C@H](CCC(=O)O)NC(=O)[C@H](CC(C)C)NC(=O)[C@H](CC(C)C)NC(=O)CNC(=O)[C@H](CO)NC(=O)C(C)(C)NC(=O)[C@H](CC(=O)O)NC(=O)[C@H](CO)NC(=O)[C@@H](NC(=O)[C@H](Cc1ccccc1)NC(=O)[C@@H](NC(=O)CNC(=O)[C@H](CCC(=O)O)NC(=O)C(C)(C)NC(=O)[C@@H](N)Cc1c[nH]cn1)[C@@H](C)O)[C@@H](C)O)C(=O)N[C@@H](CCC(N)=O)C(=O)N[C@@H](Cc1c[nH]c2ccccc12)C(=O)N[C@@H](CC(C)C)C(=O)N[C@H](C(N)=O)C(C)C) [SEQ ID NO: 105]	5.8 -log M	10 -log M
H[Aib]EGTFTSDVSTLK([AEEA-AEEA-γGlu-C20 diacid])ELAAAQRFLEHLV-NH2 (also: K14 lipidated with C20DA[γE][OEG][OEG]- or C18DA[γE][OEG][OEG]-) [SEQ ID NO: 11]	6.2 -log M	10.3 -log M
H[Aib]EGTFTSD[Aib]SYLLEGAALQRFIQWLV-NH2 (N-terminus assumed; SMILES CC[C@H](C)[C@H](NC(=O)[C@H](Cc1ccccc1)NC(=O)[C@H](CCCNC(=N)N)NC(=O)[C@H](CCC(N)=O)NC(=O)[C@H](CC(C)C)NC(=O)[C@H](C)NC(=O)[C@H](C)NC(=O)CNC(=O)[C@H](CCC(=O)O)NC(=O)[C@H](CC(C)C)NC(=O)[C@H](CC(C)C)NC(=O)[C@H](Cc1ccc(O)cc1)NC(=O)[C@H](CO)NC(=O)C(C)(C)NC(=O)[C@H](CC(=O)O)NC(=O)[C@H](CO)NC(=O)[C@@H](NC(=O)[C@H](Cc1ccccc1)NC(=O)[C@@H](NC(=O)CNC(=O)[C@H](CCC(=O)O)NC(=O)C(C)(C)NC(=O)[C@@H](N)Cc1c[nH]cn1)[C@@H](C)O)[C@@H](C)O)C(=O)N[C@@H](CCC(N)=O)C(=O)N[C@@H](Cc1c[nH]c2ccccc12)C(=O)N[C@@H](CC(C)C)C(=O)N[C@H](C(N)=O)C(C)C) [SEQ ID NO: 106]	5.8 -log M	10.8 -log M
H[Aib]EGTFTSD[Aib]S[Aib]LLEGAALQRFIQWLV-NH2 (N-terminus assumed; SMILES CC[C@H](C)[C@H](NC(=O)[C@H](Cc1ccccc1)NC(=O)[C@H](CCCNC(=N)N)NC(=O)[C@H](CCC(N)=O)NC(=O)[C@H](CC(C)C)NC(=O)[C@H](C)NC(=O)[C@H](C)NC(=O)CNC(=O)[C@H](CCC(=O)O)NC(=O)[C@H](CC(C)C)NC(=O)[C@H](CC(C)C)NC(=O)C(C)(C)NC(=O)[C@H](CO)NC(=O)C(C)(C)NC(=O)[C@H](CC(=O)O)NC(=O)[C@H](CO)NC(=O)[C@@H](NC(=O)[C@H](Cc1ccccc1)NC(=O)[C@@H](NC(=O)CNC(=O)[C@H](CCC(=O)O)NC(=O)C(C)(C)NC(=O)[C@@H](N)Cc1c[nH]cn1)[C@@H](C)O)[C@@H](C)O)C(=O)N[C@@H](CCC(N)=O)C(=O)N[C@@H](Cc1c[nH]c2ccccc12)C(=O)N[C@@H](CC(C)C)C(=O)N[C@H](C(N)=O)C(C)C) [SEQ ID NO: 107]	6 -log M	9.8 -log M
H[Aib]EGTFTSD[Aib]SWLLEGAALQRFIQWLV-NH2 (N-terminus assumed; SMILES CC[C@H](C)[C@H](NC(=O)[C@H](Cc1ccccc1)NC(=O)[C@H](CCCNC(=N)N)NC(=O)[C@H](CCC(N)=O)NC(=O)[C@H](CC(C)C)NC(=O)[C@H](C)NC(=O)[C@H](C)NC(=O)CNC(=O)[C@H](CCC(=O)O)NC(=O)[C@H](CC(C)C)NC(=O)[C@H](CC(C)C)NC(=O)[C@H](Cc1c[nH]c2ccccc12)NC(=O)[C@H](CO)NC(=O)C(C)(C)NC(=O)[C@H](CC(=O)O)NC(=O)[C@H](CO)NC(=O)[C@@H](NC(=O)[C@H](Cc1ccccc1)NC(=O)[C@@H](NC(=O)CNC(=O)[C@H](CCC(=O)O)NC(=O)C(C)(C)NC(=O)[C@@H](N)Cc1c[nH]cn1)[C@@H](C)O)[C@@H](C)O)C(=O)N[C@@H](CCC(N)=O)C(=O)N[C@@H](Cc1c[nH]c2ccccc12)C(=O)N[C@@H](CC(C)C)C(=O)N[C@H](C(N)=O)C(C)C) [SEQ ID NO: 108]	5.9 -log M	10.1 -log M
